Here are results for 84 variants from the supplement of paper PMC10219994.

± gives the standard deviation of the averaged measurements.

The chains are these.
B1: library; a variant is named by its letters at N, in order (parent)
chain: GAGACCGCAACTGAAAAGTTGTGGNNNNNATAGTGAGTCGCTGCCTGCAAAGACACAACT

The data set covers variants of B1. Kind of data set: ligation selection enrichment (abundance after / before one-round selection) (fold); higher = more template-directed ligation activity. The note with it: with T7Psub CACGGAUGCUAAUACGACUCACUAUA; MgCl2 25 mM; 42 °C; 4 h; pH 8.5. The protocol:
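Lib-N5 ligase ribozyme library: five randomized core nucleotides (including the GGA motif of N8-1) within the fixed N8-1 ribozyme flanks, transcribed by T7 RNA polymerase with a 5'-triphosphate. The library (0.75 uM) was reacted with substrate T7Psub (6 uM) in 50 mM EPPS pH 8.5 with 25 mM MgCl2 at 42 C for 4 h. Ligated products were PAGE-purified, reverse transcribed and MiSeq sequenced; enrichment = abundance after selection / abundance before selection, with two independent replicates. The full transcript is built from the printed template flanks.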
As to ACACA, the ligation selection enrichment came out at 0.134 ± 0.024.

Regarding ACACT, the ligation selection enrichment was determined as 0.474 ± 0.18.

As to ACACC, the ligation selection enrichment came out at 0.132 ± 0.0051.

As for GGAGA, the ligation selection enrichment is 0.285 ± 0.02.

As for GATGC, the ligation selection enrichment came to 0.247 ± 0.024.

For the variant GATGA, the ligation selection enrichment turned out to be 0.606 ± 0.077.

As for GATGT, the ligation selection enrichment came to 0.126 ± 0.036.

For the variant GATGG, the ligation selection enrichment was 0.46 ± 0.1.

With CGAAA, the ligation selection enrichment turned out to be 0.31 ± 0.015.

As to CGAAG, the ligation selection enrichment is 0.4199 ± 0.0032.

For CGAAC, the ligation selection enrichment was determined as 0.246 ± 0.0029.

As to CGAAT, the ligation selection enrichment was 2.11 ± 0.22.

Turning to TCTTA, the ligation selection enrichment stood at 0.122 ± 0.024.

TCTTT: the ligation selection enrichment was determined as 0.193 ± 0.18.

TCTTC: the ligation selection enrichment amounted to 0.0955 ± 0.034.

With TCTTG, the ligation selection enrichment amounted to 0.678 ± 0.067.

In the case of TCGGT, the ligation selection enrichment is 0.115 ± 0.0078.

For the variant TCGGA, the ligation selection enrichment stood at 0.233 ± 0.022.

As for TCGGC, the ligation selection enrichment amounted to 0.232 ± 0.01.

For the variant TCGGG, the ligation selection enrichment came to 0.41 ± 0.01.

In the case of CGAGA, the ligation selection enrichment amounted to 0.348 ± 0.084.

On to CATCC, for which the ligation selection enrichment amounted to 0.247 ± 0.012.

For the variant CATCG, the ligation selection enrichment amounted to 1.33 ± 0.14.

Consider CATCT, for which the ligation selection enrichment amounted to 0.541 ± 0.19.

Consider TCGTA, for which the ligation selection enrichment turned out to be 0.31 ± 0.074.

As to TCGTG, the ligation selection enrichment turned out to be 0.173 ± 0.047.

As to TCGTT, the ligation selection enrichment came to 0.205 ± 0.12.

As to TCGTC, the ligation selection enrichment came to 0.202 ± 0.02.

GCGCC: the ligation selection enrichment stood at 0.191 ± 0.017.

With GCGCA, the ligation selection enrichment was 0.289 ± 0.025.

Regarding GCGCG, the ligation selection enrichment came to 0.558 ± 0.0074.

In the case of GCGCT, the ligation selection enrichment worked out at 0.519 ± 0.19.

As to GCACG, the ligation selection enrichment worked out at 0.521 ± 0.053.

For the variant GCACA, the ligation selection enrichment worked out at 0.175 ± 0.0085.

With GCACC, the ligation selection enrichment came to 0.153 ± 0.024.

In the case of GCACT, the ligation selection enrichment was determined as 0.555 ± 0.18.

Regarding ACTGG, the ligation selection enrichment turned out to be 0.421 ± 0.0057.

Take ACTGT: the ligation selection enrichment came to 0.13 ± 0.074.

For the variant ACTGA, the ligation selection enrichment is 0.286 ± 0.048.

For ACTGC, the ligation selection enrichment amounted to 0.137 ± 0.025.

Take CCATC: the ligation selection enrichment worked out at 0.121 ± 0.0018.

Take CCATT: the ligation selection enrichment was determined as 0.223 ± 0.041.

Take CCATG: the ligation selection enrichment was 0.166 ± 0.043.

As to CCATA, the ligation selection enrichment turned out to be 0.14 ± 0.025.

With GATCC, the ligation selection enrichment was determined as 0.276 ± 0.057.

For GATCG, the ligation selection enrichment was found to be 0.78 ± 0.097.

Take GATCT: the ligation selection enrichment was found to be 0.306 ± 0.085.

GCCCA: the ligation selection enrichment was 0.209 ± 0.023.

Regarding GCCCT, the ligation selection enrichment is 0.424 ± 0.17.

Turning to GCCCC, the ligation selection enrichment came out at 0.227 ± 0.022.

For the variant GCCCG, the ligation selection enrichment stood at 0.803 ± 0.034.

GCAAA: the ligation selection enrichment came out at 0.304 ± 0.025.

For the variant GCAAG, the ligation selection enrichment was determined as 0.562 ± 0.043.

As for GCAAC, the ligation selection enrichment was found to be 0.281 ± 0.015.

Consider GCAAT, for which the ligation selection enrichment stood at 4.77 ± 1.7.

In the case of ACCGT, the ligation selection enrichment is 0.232 ± 0.081.

In the case of ACCGA, the ligation selection enrichment stood at 0.379 ± 0.054.

Consider ACCGC, for which the ligation selection enrichment came to 0.182 ± 0.016.

For the variant ACCGG, the ligation selection enrichment turned out to be 0.409 ± 0.0084.

Regarding TGACA, the ligation selection enrichment was found to be 0.19 ± 0.052.

As for TGACG, the ligation selection enrichment turned out to be 0.49 ± 0.13.

Turning to TGACC, the ligation selection enrichment was determined as 0.183 ± 0.0057.

Regarding TGACT, the ligation selection enrichment was 0.683 ± 0.3.

Regarding GCAGT, the ligation selection enrichment was found to be 0.0918 ± 0.00069.

In the case of GCAGC, the ligation selection enrichment came to 0.14 ± 0.021.

In the case of GCAGG, the ligation selection enrichment came to 0.189 ± 0.024.

For the variant GCAGA, the ligation selection enrichment turned out to be 0.363 ± 0.026.

As to ACTTT, the ligation selection enrichment turned out to be 0.465 ± 0.065.

On to ACTTA, for which the ligation selection enrichment came to 0.172 ± 0.0078.

In the case of ACTTC, the ligation selection enrichment turned out to be 0.192 ± 0.049.

With ACTTG, the ligation selection enrichment turned out to be 0.918 ± 0.18.

Turning to ACGCT, the ligation selection enrichment came out at 0.449 ± 0.15.

ACGCA: the ligation selection enrichment is 0.248 ± 0.016.

On to ACGCG, for which the ligation selection enrichment amounted to 0.622 ± 0.021.

For ACGCC, the ligation selection enrichment was 0.153 ± 0.035.

Take GGACG: the ligation selection enrichment turned out to be 0.725 ± 0.049.

Consider GGACT, for which the ligation selection enrichment worked out at 0.703 ± 0.31.

In the case of GGACC, the ligation selection enrichment was 0.232 ± 0.06.

As for GGACA, the ligation selection enrichment was 0.256 ± 0.046.

On to AGAAT, for which the ligation selection enrichment turned out to be 3.78 ± 0.51.

As for AGAAA, the ligation selection enrichment came out at 0.306 ± 0.043.

Consider AGAAC, for which the ligation selection enrichment worked out at 0.267 ± 0.06.

In the case of AGAAG, the ligation selection enrichment came to 0.4 ± 0.033.

Consider CCTCA, for which the ligation selection enrichment is 0.348 ± 0.055.
